# Reference: paper PMC9826837 (The Journal of Biological Chemistry, 2022)
# Target: rat cardiac troponin I (cTnI), Ser22/23 bisphosphorylated (rat, UniProt P23693 1-211, phosphoserine at 22 and 23)
# Assay: SEC-MALS
binder,measurement,value
rat cardiac troponin T (cTnT) (natural protein) not shown,stoichiometry N,1
